Assay [1] concerns the target T1, human GHR (as in Tables 1 and 2) (human, UniProt P10912 49-253, limits assumed).
T1 sequence: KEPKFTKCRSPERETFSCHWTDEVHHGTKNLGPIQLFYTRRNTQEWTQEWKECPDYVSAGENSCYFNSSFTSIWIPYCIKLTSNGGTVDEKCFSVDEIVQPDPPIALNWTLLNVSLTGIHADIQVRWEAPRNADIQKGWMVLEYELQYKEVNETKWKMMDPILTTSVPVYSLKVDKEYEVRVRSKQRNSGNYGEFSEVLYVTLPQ
Briefly: Biacore, Fab, 25 C. Background: In SPR one partner is held on a chip, and binding of the other changes the refractive index at the surface.

Assay [2] addresses T1, human GHR (as in Tables 1 and 2). Briefly: Biacore, Fab, 37 C.
Assay [3] has the same target. Briefly: Biacore, 25 C; 25 C (no asterisk).

B1: SS4 Fab (Fab, V domains shown)
VH: EVQLVESGGGLVKPGGSLRLSCAASGFTFSDAWMDWVRQAPGKGLEWVAEIRSKANNHATYYAESVKGRFTISRDDSKNTLYLQMNSLKTEDTAVYYCTLYRDYWGQGTLVTVSS
VL: EIVLTQSPGTLSLSPGERATLSCTATSSVSSSYLHWYQQKPGQAPRLLIYSTSNLASGIPDRFSGSGSGTDFTLTISRLEPEDFAVYYCHQYHRSTPTFGGGTKVEIK
notes: Fab
In the case of B1, the figures for the Kd in assay [1], in assay [2] and in assay [3] were 28.4 nM, 124 nM and 28.4 nM, respectively.
